Results on 6 molecules are retold here after article PMC7367873, “Dissecting the sequence determinants for dephosphorylation by the catalytic subunits of phosphatases PP1 and PP2A” (Nature Communications, 2020).

First the molecules themselves.
B1: USP53 (protein, UniProt Q70EK8 1-1073, looked up)
Ubiquitin carboxyl-terminal …: MAWVKFLRKPGGNLGKVYQPGSMLSLAPTKGLLNEPGQNSCFLNSAVQVLWQLDIFRRSLRVLTGHVCQGDACIFCALKTIFAQFQHSREKALPSDNIRHALAESFKDEQRFQLGLMDDAAECFENMLERIHFHIVPSRDADMCTSKSCITHQKFAMTLYEQCVCRSCGASSDPLPFTEFVRYISTTALCNEVERMLERHERFKPEMFAELLQAANTTDDYRKCPSNCGQKIKIRRVLMNCPEIVTIGLVWDSEHSDLTEAVVRNLATHLYLPGLFYRVTDENAKNSELNLVGMICYTSQHYCAFAFHTKSSKWVFFDDANVKEIGTRWKDVVSKCIRCHFQPLLLFYANPDGTAVSTEDALRQVISWSHYKSVAENMGCEKPVIHKSDNLKENGFGDQAKQRENQKFPTDNISSSNRSHSHTGVGKGPAKLSHIDQREKIKDISRECALKAIEQKNLLSSQRKDLEKGQRKDLGRHRDLVDEDLSHFQSGSPPAPNGFKQHGNPHLYHSQGKGSYKHDRVVPQSRASAQIISSSKSQILAPGEKITGKVKSDNGTGYDTDSSQDSRDRGNSCDSSSKSRNRGWKPMRETLNVDSIFSESEKRQHSPRHKPNISNKPKSSKDPSFSNWPKENPKQKGLMTIYEDEMKQEIGSRSSLESNGKGAEKNKGLVEGKVHGDNWQMQRTESGYESSDHISNGSTNLDSPVIDGNGTVMDISGVKETVCFSDQITTSNLNKERGDCTSLQSQHHLEGFRKELRNLEAGYKSHEFHPESHLQIKNHLIKRSHVHEDNGKLFPSSSLQIPKDHNAREHIHQSDEQKLEKPNECKFSEWLNIENSERTGLPFHVDNSASGKRVNSNEPSSLWSSHLRTVGLKPETAPLIQQQNIMDQCYFENSLSTECIIRSASRSDGCQMPKLFCQNLPPPLPPKKYAITSVPQSEKSESTPDVKLTEVFKATSHLPKHSLSTASEPSLEVSTHMNDERHKETFQVRECFGNTPNCPSSSSTNDFQANSGAIDAFCQPELDSISTCPNETVSLTTYFSVDSCMTDTYRLKYHQRPKLSFPESSGFCNNSLS
B2: TRIM26 (protein, UniProt Q12899 1-539, looked up)
Tripartite motif-containing …: MATSAPLRSLEEEVTCSICLDYLRDPVTIDCGHVFCRSCTTDVRPISGSRPVCPLCKKPFKKENIRPVWQLASLVENIERLKVDKGRQPGEVTREQQDAKLCERHREKLHYYCEDDGKLLCVMCRESREHRPHTAVLMEKAAQPHREKILNHLSTLRRDRDKIQGFQAKGEADILAALKKLQDQRQYIVAEFEQGHQFLREREEHLLEQLAKLEQELTEGREKFKSRGVGELARLALVISELEGKAQQPAAELMQDTRDFLNRYPRKKFWVGKPIARVVKKKTGEFSDKLLSLQRGLREFQGKLLRDLEYKTVSVTLDPQSASGYLQLSEDWKCVTYTSLYKSAYLHPQQFDCEPGVLGSKGFTWGKVYWEVEVEREGWSEDEEEGDEEEEGEEEEEEEEAGYGDGYDDWETDEDEESLGDEEEEEEEEEEEVLESCMVGVARDSVKRKGDLSLRPEDGVWALRLSSSGIWANTSPEAELFPALRPRRVGIALDYEGGTVTFTNAESQELIYTFTATFTRRLVPFLWLKWPGTRLLLRP
B3: SLC39A7 (protein, UniProt Q92504 1-469, looked up)
Zinc transporter SLC39A7: MARGLGAPHWVAVGLLTWATLGLLVAGLGGHDDLHDDLQEDFHGHSHRHSHEDFHHGHSHAHGHGHTHESIWHGHTHDHDHGHSHEDLHHGHSHGYSHESLYHRGHGHDHEHSHGGYGESGAPGIKQDLDAVTLWAYALGATVLISAAPFFVLFLIPVESNSPRHRSLLQILLSFASGGLLGDAFLHLIPHALEPHSHHTLEQPGHGHSHSGQGPILSVGLWVLSGIVAFLVVEKFVRHVKGGHGHSHGHGHAHSHTRGSHGHGRQERSTKEKQSSEEEEKETRGVQKRRGGSTVPKDGPVRPQNAEEEKRGLDLRVSGYLNLAADLAHNFTDGLAIGASFRGGRGLGILTTMTVLLHEVPHEVGDFAILVQSGCSKKQAMRLQLLTAVGALAGTACALLTEGGAVGSEIAGGAGPGWVLPFTAGGFIYVATVSVLPELLREASPLQSLLEVLGLLGGVIMMVLIAHLE
B4: RRP12 (protein, UniProt Q5JTH9 1-1297, looked up)
RRP12-like protein: MGRSGKLPSGVSAKLKRWKKGHSSDSNPAICRHRQAARSRFFSRPSGRSDLTVDAVKLHNELQSGSLRLGKSEAPETPMEEEAELVLTEKSSGTFLSGLSDCTNVTFSKVQRFWESNSAAHKEICAVLAAVTEVIRSQGGKETETEYFAALMTTMEAVESPESLAAVAYLLNLVLKRVPSPVLIKKFSDTSKAFMDIMSAQASSGSTSVLRWVLSCLATLLRKQDLEAWGYPVTLQVYHGLLSFTVHPKPKIRKAAQHGVCSVLKGSEFMFEKAPAHHPAAISTAKFCIQEIEKSGGSKEATTTLHMLTLLKDLLPCFPEGLVKSCSETLLRVMTLSHVLVTACAMQAFHSLFHARPGLSTLSAELNAQIITALYDYVPSENDLQPLLAWLKVMEKAHINLVRLQWDLGLGHLPRFFGTAVTCLLSPHSQVLTAATQSLKEILKECVAPHMADIGSVTSSASGPAQSVAKMFRAVEEGLTYKFHAAWSSVLQLLCVFFEACGRQAHPVMRKCLQSLCDLRLSPHFPHTAALDQAVGAAVTSMGPEVVLQAVPLEIDGSEETLDFPRSWLLPVIRDHVQETRLGFFTTYFLPLANTLKSKAMDLAQAGSTVESKIYDTLQWQMWTLLPGFCTRPTDVAISFKGLARTLGMAISERPDLRVTVCQALRTLITKGCQAEADRAEVSRFAKNFLPILFNLYGQPVAAGDTPAPRRAVLETIRTYLTITDTQLVNSLLEKASEKVLDPASSDFTRLSVLDLVVALAPCADEAAISKLYSTIRPYLESKAHGVQKKAYRVLEEVCASPQGPGALFVQSHLEDLKKTLLDSLRSTSSPAKRPRLKCLLHIVRKLSAEHKEFITALIPEVILCTKEVSVGARKNAFALLVEMGHAFLRFGSNQEEALQCYLVLIYPGLVGAVTMVSCSILALTHLLFEFKGLMGTSTVEQLLENVCLLLASRTRDVVKSALGFIKVAVTVMDVAHLAKHVQLVMEAIGKLSDDMRRHFRMKLRNLFTKFIRKFGFELVKRLLPEEYHRVLVNIRKAEARAKRHRALSQAAVEEEEEEEEEEEPAQGKGDSIEEILADSEDEEDNEEEERSRGKEQRKLARQRSRAWLKEGGGDEPLNFLDPKVAQRVLATQPGPGRGRKKDHGFKVSADGRLIIREEADGNKMEEEEGAKGEDEEMADPMEDVIIRNKKHQKLKHQKEAEEEELEIPPQYQAGGSGIHRPVAKKAMPGAEYKAKKAKGDVKKKGRPDPYAYIPLNRSKLNRRKKMKLQGQFKGLVKAARRGSQVGHKNRRKDRRP
B5: PRPF6 (protein, UniProt O94906 1-941, looked up)
Pre-mRNA-processing factor 6: MNKKKKPFLGMPAPLGYVPGLGRGATGFTTRSDIGPARDANDPVDDRHAPPGKRTVGDQMKKNQAADDDDEDLNDTNYDEFNGYAGSLFSSGPYEKDDEEADAIYAALDKRMDERRKERREQREKEEIEKYRMERPKIQQQFSDLKRKLAEVTEEEWLSIPEVGDARNKRQRNPRYEKLTPVPDSFFAKHLQTGENHTSVDPRQTQFGGLNTPYPGGLNTPYPGGMTPGLMTPGTGELDMRKIGQARNTLMDMRLSQVSDSVSGQTVVDPKGYLTDLNSMIPTHGGDINDIKKARLLLKSVRETNPHHPPAWIASARLEEVTGKLQVARNLIMKGTEMCPKSEDVWLEAARLQPGDTAKAVVAQAVRHLPQSVRIYIRAAELETDIRAKKRVLRKALEHVPNSVRLWKAAVELEEPEDARIMLSRAVECCPTSVELWLALARLETYENARKVLNKARENIPTDRHIWITAAKLEEANGNTQMVEKIIDRAITSLRANGVEINREQWIQDAEECDRAGSVATCQAVMRAVIGIGIEEEDRKHTWMEDADSCVAHNALECARAIYAYALQVFPSKKSVWLRAAYFEKNHGTRESLEALLQRAVAHCPKAEVLWLMGAKSKWLAGDVPAARSILALAFQANPNSEEIWLAAVKLESENDEYERARRLLAKARSSAPTARVFMKSVKLEWVQDNIRAAQDLCEEALRHYEDFPKLWMMKGQIEEQKEMMEKAREAYNQGLKKCPHSTPLWLLLSRLEEKIGQLTRARAILEKSRLKNPKNPGLWLESVRLEYRAGLKNIANTLMAKALQECPNSGILWSEAIFLEARPQRRTKSVDALKKCEHDPHVLLAVAKLFWSQRKITKAREWFHRTVKIDSDLGDAWAFFYKFELQHGTEEQQEEVRKRCESAEPRHGELWCAVSKDIANWQKKIGDILRLVAGRIKNTF
B6: ADAR (protein, UniProt P55265 1-1226, looked up)
Double-stranded RNA-specific …: MNPRQGYSLSGYYTHPFQGYEHRQLRYQQPGPGSSPSSFLLKQIEFLKGQLPEAPVIGKQTPSLPPSLPGLRPRFPVLLASSTRGRQVDIRGVPRGVHLRSQGLQRGFQHPSPRGRSLPQRGVDCLSSHFQELSIYQDQEQRILKFLEELGEGKATTAHDLSGKLGTPKKEINRVLYSLAKKGKLQKEAGTPPLWKIAVSTQAWNQHSGVVRPDGHSQGAPNSDPSLEPEDRNSTSVSEDLLEPFIAVSAQAWNQHSGVVRPDSHSQGSPNSDPGLEPEDSNSTSALEDPLEFLDMAEIKEKICDYLFNVSDSSALNLAKNIGLTKARDINAVLIDMERQGDVYRQGTTPPIWHLTDKKRERMQIKRNTNSVPETAPAAIPETKRNAEFLTCNIPTSNASNNMVTTEKVENGQEPVIKLENRQEARPEPARLKPPVHYNGPSKAGYVDFENGQWATDDIPDDLNSIRAAPGEFRAIMEMPSFYSHGLPRCSPYKKLTECQLKNPISGLLEYAQFASQTCEFNMIEQSGPPHEPRFKFQVVINGREFPPAEAGSKKVAKQDAAMKAMTILLEEAKAKDSGKSEESSHYSTEKESEKTAESQTPTPSATSFFSGKSPVTTLLECMHKLGNSCEFRLLSKEGPAHEPKFQYCVAVGAQTFPSVSAPSKKVAKQMAAEEAMKALHGEATNSMASDNQPEGMISESLDNLESMMPNKVRKIGELVRYLNTNPVGGLLEYARSHGFAAEFKLVDQSGPPHEPKFVYQAKVGGRWFPAVCAHSKKQGKQEAADAALRVLIGENEKAERMGFTEVTPVTGASLRRTMLLLSRSPEAQPKTLPLTGSTFHDQIAMLSHRCFNTLTNSFQPSLLGRKILAAIIMKKDSEDMGVVVSLGTGNRCVKGDSLSLKGETVNDCHAEIISRRGFIRFLYSELMKYNSQTAKDSIFEPAKGGEKLQIKKTVSFHLYISTAPCGDGALFDKSCSDRAMESTESRHYPVFENPKQGKLRTKVENGEGTIPVESSDIVPTWDGIRLGERLRTMSCSDKILRWNVLGLQGALLTHFLQPIYLKSVTLGYLFSQGHLTRAICCRVTRDGSAFEDGLRHPFIVNHPKVGRVSIYDSKRQSGKTKETSVNWCLADGYDLEILDGTRGTVDGPRNELSRVSKKNIFLLFKKLCSFRYRRDLLRLSYGEAKKAARDYETAKNYFKKGLKDMGYGNWISKPQEEKNFYLCPV

For the first assay, the system named is GFP-14-3-3β and its binding proteins. The assay is described as follows: GFP-14-3-3β co-IP with LC-MS/MS label-free quantification, untreated versus PP1c-treated. More on the design: species or system human. As to conditions: log2 difference; pairwise comparison PP1 vs untreated, label-free quantification, 3 replicates each.
Take B1: the “Difference (log2), PP1 vs untreated” value is on record as 1.978.

With B2, the “Difference (log2), PP1 vs untreated” value is 2.003.

The same assay, now with this note: pairwise comparison PP1 vs untreated.
Take B3: the “Difference (log2), PP1 vs untreated” value turned out to be 0.1123 log2.

With B4, the “Difference (log2), PP1 vs untreated” value amounted to 0.1167 log2.

For the molecule B5, the “Difference (log2), PP1 vs untreated” value is 0.1336 log2.

With B6, the “Difference (log2), PP1 vs untreated” value is on record as 0.1214 log2.

A further assay has as its system GFP-14-3-3β. The assay can be described thus: GFP-14-3-3β co-IP with LC-MS/MS, untreated GFP-14-3-3β versus GFP control (14-3-3 interactome). The format is binding, human. The settings on record: log2 difference; pairwise comparison untreated vs GFP, label-free quantification, 3 replicates each.
On to B1, for which the “Difference (log2), untreated vs GFP” value turned out to be 5.4971.

For B2, the “Difference (log2), untreated vs GFP” value was -0.363.

The assay is the same for the next values; noted with them: pairwise comparison untreated vs GFP.
Turning to B3, the “Difference (log2), untreated vs GFP” value stood at 0.9479 log2.

As for B4, the “Difference (log2), untreated vs GFP” value was found to be 0.888 log2.

For the molecule B5, the “Difference (log2), untreated vs GFP” value is 1.324 log2.

As for B6, the “Difference (log2), untreated vs GFP” value turned out to be 1.541 log2.
